Consider one molecule from paper PMC8823246 (Journal for Immunotherapy of Cancer, 2022).

In this assay the target is T1, recombinant human VISTA-Fc protein (human, UniProt Q9H7M9 33-194).
T1 sequence (looked up): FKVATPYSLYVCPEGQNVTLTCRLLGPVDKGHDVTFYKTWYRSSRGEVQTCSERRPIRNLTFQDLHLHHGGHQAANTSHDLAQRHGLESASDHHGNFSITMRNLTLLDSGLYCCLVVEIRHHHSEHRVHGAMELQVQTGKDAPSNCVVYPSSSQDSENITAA
Nature of the assay: ELISA. On the technique in general: An ELISA detects its analyte on a solid surface through an enzyme-linked reagent.

B1: recombinant human VSIG3-Fc (Fc fusion, UniProt Q5DX21 23-241, looked up)
chain: LEVSESPGSIQVARGQPAVLPCTFTTSAALINLNVIWMVTPLSNANQPEQVILYQGGQMFDGAPRFHGRVGFTGTMPATNVSIFINNTQLSDTGTYQCLVNNLPDIGGRNIGVTGLTVLVPPSAPHCQIQGSQDIGSDVILLCSSEEGIPRPTYLWEKLDNTLKLPPTATQDQVQGTVTIRNISALSSGLYQCVASNAIGTSTCLLDLQVISPQPRNIG
modifications: biotin (biotinylated using Invitrogen kit #21455) in the inhibition assay
For orientation: EC50 means the midpoint of the concentration-response curve. As to B1, the EC50 was 24 nM.
